Each block holds one molecule with its values, some of them ahead of it.
Legend:
Assay in all cases: SEC-MALS; size exclusion chromatography with multi-angle light scattering of Ni-purified uricases dialyzed into PBS; noncovalent molecular weight compared with the theoretical tetramer
[1] = target: Kyrpidia tusciae uricase (Kyrpidia tusciae)
[2] = target: Terriglobus saanensis uricase (Terriglobus saanensis)
[3] = target: Granulicella tundricola uricase (Granulicella tundricola)
[4] = target: Solibacter usitatus uricase (Solibacter usitatus)
[5] = target: Deinococcus geothermalis uricase (Deinococcus geothermalis)
[6] = target: Deinococcus radiodurans uricase (Deinococcus radiodurans)
[7] = target: the molecule itself

Molecule: Granulicella tundricola uricase (enzyme)
- stoichiometry N [3]: 4

Molecule: Solibacter usitatus uricase (enzyme)
- stoichiometry N [4]: 4

Molecule: Deinococcus radiodurans uricase (enzyme)
- stoichiometry N [6]: 4

B1: Arthrobacter globiformis uricase (C-terminally truncated by 11 amino acids, N-terminal His tag) (enzyme, UniProt D0VWQ1 1-291, looked up)
chain: MTATAETSTGTKVVLGQNQYGKAEVRLVKVTRNTARHEIQDLNVTSQLRGDFEAAHTAGDNAHVVATDTQKNTVYAFARDGFATTEEFLLRLGKHFTEGFDWVTGGRWAAQQFFWDRINDHDHAFSRNKSEVRTAVLEISGSEQAIVAGIEGLTVLKSTGSEFHGFPRDKYTTLQETTDRILATDVSARWRYNTVEVDFDAVYASVRGLLLKAFAETHSLALQQTMYEMGRAVIETHPEIDEIKMSLPNKHHFLVDLQPFGQDNPNEVFYAADRPYGLIEATIQREGSRAD
notes: Synthetic gene in a modified pET15b-based vector; also called RGD-containing Arthrobacter globiformis uricase; uricase containing RGD
- stoichiometry N [7]: 4

Other lines, results leading:

- stoichiometry N [1]: 4
Molecule: Kyrpidia tusciae uricase (enzyme)

- stoichiometry N [2]: 4
Molecule: Terriglobus saanensis uricase (enzyme)

- stoichiometry N [5]: 4
Molecule: Deinococcus geothermalis uricase (enzyme)

From paper PMC5176304 (PLoS ONE, 2016)
